Test results taken from patent publication US20200347133A1 (INHIBRX, published 2020).

B1: 1E4 sdAb (1E4 VHH domain fused to human IgG1 xELL Fc region) (Fc fusion)
chain: QVQLQQSGGGSVQAGGSLRLSCVASGSGFSASLMSWHRQAPGSQRDLVASITRDGRANYVDSVKDRFTISRDNAKNTAYLQMDSLKPEDTAAYYCHAYSFDYPIRSYWGQGTQVTVDKTHTCPPCPAPGGPSVFLFPPKPKDTLMISRTPEVTCVVVDVSHEDPEVKFNWYVDGVEVHNAKTKPREEQYNSTYRVVSVLTVLHQDWLNGKEYKCKVSNKALPAPIEKTISKAKGQPREPQVYTLPPSRDELTKNQVSLTCLVKGFYPSDIAVEWESNGQPENNYKTTPPVLDSDGSFFLYSKLTVDKSRWQQGNVFSCSVMHEALHNHYTQKSLSLSPGK
notes: VHH-Fc; no linker between VHH and Fc is stated; also called 1E4-IgG1
B2: hz1E4v2 sdAb (hz1E4v2 VHH domain fused to human IgG1 xELL Fc region) (Fc fusion)
chain: EVQLVESGGGEVQPGGSLRLSCAASGSGFSASLMSWHRQAPGKQRDLVASITRDGRANYVESVKGRFTISRDNAKNTLYLQMSSLRAEDTAVYYCHAYSFDYPIRSYWGQGTLVTVDKTHTCPPCPAPGGPSVFLFPPKPKDTLMISRTPEVTCVVVDVSHEDPEVKFNWYVDGVEVHNAKTKPREEQYNSTYRVVSVLTVLHQDWLNGKEYKCKVSNKALPAPIEKTISKAKGQPREPQVYTLPPSRDELTKNQVSLTCLVKGFYPSDIAVEWESNGQPENNYKTTPPVLDSDGSFFLYSKLTVDKSRWQQGNVFSCSVMHEALHNHYTQKSLSLSPGK
notes: VHH-Fc; no linker stated; also called hz1E4v2-IgG1
B3: 1G3 sdAb (1G3 VHH domain fused to human IgG1 xELL Fc region) (Fc fusion)
chain: EVQLQQSGGGEVQPGGSLRLSCEASGFTFSSYAMGWFRQAPGKGREWVAAITTSGDTTYYAESVKGRFTISRDNAKNTVYLQMSSLRAEDTAVYYCAAHRGGGVIDYWGQGTQVTVDKTHTCPPCPAPGGPSVFLFPPKPKDTLMISRTPEVTCVVVDVSHEDPEVKFNWYVDGVEVHNAKTKPREEQYNSTYRVVSVLTVLHQDWLNGKEYKCKVSNKALPAPIEKTISKAKGQPREPQVYTLPPSRDELTKNQVSLTCLVKGFYPSDIAVEWESNGQPENNYKTTPPVLDSDGSFFLYSKLTVDKSRWQQGNVFSCSVMHEALHNHYTQKSLSLSPGK
notes: VHH-Fc; no linker stated
B4: hz1G3v3 sdAb (hz1G3v3 VHH domain fused to human IgG1 xELL Fc region) (Fc fusion)
chain: EVQLVESGGGEVQPGGSLRLSCAASGFTFSSYAMGWFRQAPGKGREWVAAITTSGDTTYYAESVKGRFTISRDNAKNTVYLQMSSLRAEDTAVYYCAAHRGGGVIDYWGQGTLVTVDKTHTCPPCPAPGGPSVFLFPPKPKDTLMISRTPEVTCVVVDVSHEDPEVKFNWYVDGVEVHNAKTKPREEQYNSTYRVVSVLTVLHQDWLNGKEYKCKVSNKALPAPIEKTISKAKGQPREPQVYTLPPSRDELTKNQVSLTCLVKGFYPSDIAVEWESNGQPENNYKTTPPVLDSDGSFFLYSKLTVDKSRWQQGNVFSCSVMHEALHNHYTQKSLSLSPGK
notes: VHH-Fc; no linker stated; also called hz1G3v3-IgG1
B5: G11 sdAb (G11 VHH domain fused to human IgG1 xELL Fc region) (Fc fusion)
chain: EVQLVQSGGGSVQVGGSLRLSCAASGSTLNIDHIGWYRQAPGKERELVGVISSGAGPNYADSVKGRFTISRDNAKNTVYLQMNSLKPEDTAVYNCNAWIDYGSGLPQNYWGQGTQVTVDKTHTCPPCPAPGGPSVFLFPPKPKDTLMISRTPEVTCVVVDVSHEDPEVKFNWYVDGVEVHNAKTKPREEQYNSTYRVVSVLTVLHQDWLNGKEYKCKVSNKALPAPIEKTISKAKGQPREPQVYTLPPSRDELTKNQVSLTCLVKGFYPSDIAVEWESNGQPENNYKTTPPVLDSDGSFFLYSKLTVDKSRWQQGNVFSCSVMHEALHNHYTQKSLSLSPGK
notes: VHH-Fc; no linker stated
B6: hzG11v2 sdAb (hzG11v2 VHH domain fused to human IgG1 xELL Fc region) (Fc fusion)
chain: EVQLVESGGGEVQPGGSLRLSCAASGSTLNIDHIGWYRQAPGKERELVGVISSGAGPNYAESVKGRFTISRDNAKNTVYLQMSSLRAEDTAVYYCNAWIDYGSGLPQNYWGQGTLVTVDKTHTCPPCPAPGGPSVFLFPPKPKDTLMISRTPEVTCVVVDVSHEDPEVKFNWYVDGVEVHNAKTKPREEQYNSTYRVVSVLTVLHQDWLNGKEYKCKVSNKALPAPIEKTISKAKGQPREPQVYTLPPSRDELTKNQVSLTCLVKGFYPSDIAVEWESNGQPENNYKTTPPVLDSDGSFFLYSKLTVDKSRWQQGNVFSCSVMHEALHNHYTQKSLSLSPGK
notes: VHH-Fc; no linker stated; also called hzG11v2-IgG1
B7: 1C7 sdAb (1C7 VHH domain fused to human IgG1 xELL Fc region) (Fc fusion)
chain: QVQLQQSGGGLVQAGGSLRLSCAASGRTFSGYIMGWFRQVPGKERELVARISGNNLSTEYGGSVKGRFTISRDSAKETMYLQMNSLKPEDTAIYYCAAEYDYSSGDFVYWGQGTQVTVDKTHTCPPCPAPGGPSVFLFPPKPKDTLMISRTPEVTCVVVDVSHEDPEVKFNWYVDGVEVHNAKTKPREEQYNSTYRVVSVLTVLHQDWLNGKEYKCKVSNKALPAPIEKTISKAKGQPREPQVYTLPPSRDELTKNQVSLTCLVKGFYPSDIAVEWESNGQPENNYKTTPPVLDSDGSFFLYSKLTVDKSRWQQGNVFSCSVMHEALHNHYTQKSLSLSPGK
notes: VHH-Fc; no linker stated; also called 1C7-IgG1
B8: 1H9 sdAb (1H9 VHH domain fused to human IgG1 xELL Fc region) (Fc fusion)
chain: EVQLQQSGGAVVQPGGSLRLSCAASGSIFSISIMGWYRQAPGKERELVASTTSSGTTNYVDSVKGRFTASRDNAKNTVYLQMNSLKPDDTAIYHCHAYIATTTDRGYRGYWGQGTQVTVDKTHTCPPCPAPGGPSVFLFPPKPKDTLMISRTPEVTCVVVDVSHEDPEVKFNWYVDGVEVHNAKTKPREEQYNSTYRVVSVLTVLHQDWLNGKEYKCKVSNKALPAPIEKTISKAKGQPREPQVYTLPPSRDELTKNQVSLTCLVKGFYPSDIAVEWESNGQPENNYKTTPPVLDSDGSFFLYSKLTVDKSRWQQGNVFSCSVMHEALHNHYTQKSLSLSPGK
notes: VHH-Fc; no linker stated; also called 1H9-IgG1
B9: hz1H9v2 sdAb (hz1H9v2 VHH domain fused to human IgG1 xELL Fc region) (Fc fusion)
chain: EVQLVESGGGEVQPGGSLRLSCAASGSIFSISIMGWYRQAPGKERELVASTTSSGTTNYVESVKGRFTISRDNAKNTLYLQMSSLRAEDTAVYYCHAYIATTTDRGYRGYWGQGTLVTVDKTHTCPPCPAPGGPSVFLFPPKPKDTLMISRTPEVTCVVVDVSHEDPEVKFNWYVDGVEVHNAKTKPREEQYNSTYRVVSVLTVLHQDWLNGKEYKCKVSNKALPAPIEKTISKAKGQPREPQVYTLPPSRDELTKNQVSLTCLVKGFYPSDIAVEWESNGQPENNYKTTPPVLDSDGSFFLYSKLTVDKSRWQQGNVFSCSVMHEALHNHYTQKSLSLSPGK
notes: VHH-Fc; no linker stated; also called hz1H9v2-IgG1
B10: F02 sdAb (F02 VHH domain fused to human IgG1 xELL Fc region) (Fc fusion)
chain: QVQLVQSGGGLVQAGGSLRLSCAASGSISSYNVVGWYRQLSGNERGGRTMVAQINAYGDTNYANAVVGRFTISRDDAKNTVYLHMSNLKPEDTGVYYCNGQRMLENYTYRDQSWGQGTQVTVDKTHTCPPCPAPGGPSVFLFPPKPKDTLMISRTPEVTCVVVDVSHEDPEVKFNWYVDGVEVHNAKTKPREEQYNSTYRVVSVLTVLHQDWLNGKEYKCKVSNKALPAPIEKTISKAKGQPREPQVYTLPPSRDELTKNQVSLTCLVKGFYPSDIAVEWESNGQPENNYKTTPPVLDSDGSFFLYSKLTVDKSRWQQGNVFSCSVMHEALHNHYTQKSLSLSPGK
notes: VHH-Fc; no linker stated; also called F02-IgG1
B11: hzB07v7 sdAb (hzB07v7 VHH domain fused to human IgG1 xELL Fc region) (Fc fusion)
chain: EVQLVESGGGEVQPGGSLRLSCAASGRTISDYVVGWFRQAPGKERAFVAAISRYGTTYYAASVQGRFTISRDNPRNTVYLQVDSLRAEDTAVYYCAALQNDVRNNHSPTSYDYWGQGTLVTVDKTHTCPPCPAPGGPSVFLFPPKPKDTLMISRTPEVTCVVVDVSHEDPEVKFNWYVDGVEVHNAKTKPREEQYNSTYRVVSVLTVLHQDWLNGKEYKCKVSNKALPAPIEKTISKAKGQPREPQVYTLPPSRDELTKNQVSLTCLVKGFYPSDIAVEWESNGQPENNYKTTPPVLDSDGSFFLYSKLTVDKSRWQQGNVFSCSVMHEALHNHYTQKSLSLSPGK
notes: VHH-Fc; no linker stated; also called hzB07v7-IgG1

Tests used:
[1] = molecular target: T1, CD33M, full length human CD33 protein expressed on transfected cells (human, UniProt P20138 18-303); assay: flow cytometry on cells transfected with CD33M; apparent Kd, one-site fit
T1 construct: also called full length CD33
T1 sequence (P20138 18-303): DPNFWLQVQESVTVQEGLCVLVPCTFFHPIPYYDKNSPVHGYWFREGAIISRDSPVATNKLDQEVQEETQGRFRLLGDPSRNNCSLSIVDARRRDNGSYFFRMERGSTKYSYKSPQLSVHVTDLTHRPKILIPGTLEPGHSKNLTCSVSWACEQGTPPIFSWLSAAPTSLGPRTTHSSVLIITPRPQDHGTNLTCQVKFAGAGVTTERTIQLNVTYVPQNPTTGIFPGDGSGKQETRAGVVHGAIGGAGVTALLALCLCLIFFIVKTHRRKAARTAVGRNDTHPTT
Procedure: (§1) Binding of sdAbs to human CD33 was assessed by flow cytometry. […] MOLM-13 cells were transiently transfected with a plasmid encoding a sequence comprising “CD33M” (SEQ ID NO: 112) or a plasmid encoding a sequence comprising a truncated version, “CD33m” (SEQ ID NO: 113). The sequence encoded by the CD33M plasmid includes the leader sequence, full extracellular domain, transmembrane domain, and cytoplasmic domain. The sequence encoded by the CD33m plasmid includes the leader sequence, the membrane proximal IgC2 domain, and the transmembrane domain. Untransfected HEK 293 cells were used as CD33-negative cells. Each cell type was plated at 30,000 cells/well in FACS buffer (PBS 1% BSA, 0.1% NaN₃ pH 7.4) on a 96-well round-bottom plate. The sdAbs were diluted in FACS buffer in a 3-fold, 11 point serial dilution. The sdAb dilutions were added to the plated cells, and assay plates were incubated for 30 minutes at 4° C. After washing twice in 150 μL of FACS buffer, cells in each well were resuspended in 100 μL of 1:2000 Alexa Fluor 647-conjugated Anti-Human IgG secondary diluted in FACS buffer and incubated at 4° C. for 30 minutes. The cells were washed twice more, then bound antibody was detected by flow cytometry.
(§2) Flow cytometric analysis was performed on an Intellicyte iQue Plus and fluorescence was plotted as median fluorescence intensity. The apparent affinity (Kd, nM) was determined using one site binding non-linear regression in PRISM graph software.

[2] = molecular target: T1, CD33M, full length human CD33 protein …; assay: flow cytometry on MOLM-13 cells transfected with CD33 (CD33M per Table 3), anti-human IgG Alexa Fluor 647 secondary, median fluorescence
Procedure: as §1, §2

[3] = molecular target: T1, CD33M, full length human CD33 protein …; assay: flow cytometry on cells labelled CD33M-HEK-293, anti-human IgG Alexa Fluor 647 secondary, median fluorescence
Procedure: Binding of sdAbs to human CD33 was assessed by flow cytometry. […] […] The sequence encoded by the CD33M plasmid includes the leader sequence, full extracellular domain, transmembrane domain, and cytoplasmic domain. The sequence encoded by the CD33m plasmid includes the leader sequence, the membrane proximal IgC2 domain, and the transmembrane domain. Untransfected HEK 293 cells were used as CD33-negative cells. Each cell type was plated at 30,000 cells/well in FACS buffer (PBS 1% BSA, 0.1% NaN₃ pH 7.4) on a 96-well round-bottom plate. The sdAbs were diluted in FACS buffer in a 3-fold, 11 point serial dilution. The sdAb dilutions were added to the plated cells, and assay plates were incubated for 30 minutes at 4° C. After washing twice in 150 μL of FACS buffer, cells in each well were resuspended in 100 μL of 1:2000 Alexa Fluor 647-conjugated Anti-Human IgG secondary diluted in FACS buffer and incubated at 4° C. for 30 minutes. The cells were washed twice more, then bound antibody was detected by flow cytometry.
as §2

[4] = molecular target: T2, CD33m, truncated human CD33 protein expressed on transfected cells (human, UniProt P20138 140-259); assay: flow cytometry on cells transfected with truncated CD33m; apparent Kd, one-site fit
T2 construct: leader and transmembrane domain are not in it; also called truncated CD33
T2 sequence (P20138 140-259 limits assumed): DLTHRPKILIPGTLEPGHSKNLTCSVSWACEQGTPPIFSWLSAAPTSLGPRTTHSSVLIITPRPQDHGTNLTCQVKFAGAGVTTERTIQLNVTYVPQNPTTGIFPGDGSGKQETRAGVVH
Procedure: as §1, §2

Row | Binder | Kd [1] | EC50 (read off the curve) [2] | EC50 (read off the curve) [3] | Kd [4]
1 | B1 | 0.05 nM | ~0.07 nM |  | 
2 | B2 | 0.32 nM | ~0.3 nM |  | 
3 | B3 | 0.49 nM |  |  | 
4 | B4 | 1.6 nM | ~2 nM |  | 
5 | B5 | 1.1 nM |  |  | 
6 | B6 | 2.67 nM |  | ~2 nM | 
7 | B7 | 6.64 nM |  |  | 
8 | B8 | 0.14 nM | ~0.2 nM |  | 
9 | B9 | 0.27 nM | ~0.3 nM |  | 
10 | B10 | 15.2 nM |  |  | 5.15 nM
11 | B11 | 0.75 nM |  | ~0.7 nM | 
